These results are taken from article PMC6230950.

In test [1] the target is Human TB-PIGS produced in glyco-engineered ΔXF Nicotiana benthamiana (Mycobacterium tuberculosis | human | not stated) (UniProt P9WQP1). Briefly: SPR; Biacore X100; protein A on a CM5 chip, IgG or TB-PIGS captured; human CD32a as analyte, 4000 nM to 125 nM in 2-fold dilutions; HBS-EP+; 40 uL/min, contact 90 s; steady-state affinity analysis. For orientation: In SPR one partner is held on a chip, and binding of the other changes the refractive index at the surface.

For test [2], the target named is Human TB-PIGS produced in wild-type Nicotiana benthamiana (Ag85B - truncated human γ1 chain - IgM tailpiece) (Mycobacterium tuberculosis | human | not stated) (UniProt P9WQP1). Described as above.
Test [3] has as its target murine TB‐PIGS (Ag85B fused to a truncated mouse γ2a chain and the IgM μ tailpiece), produced in wil (M. tuberculosis | mouse | not stated) (UniProt P9WQP1). Briefly: native gel or EMSA. For orientation: A gel shift assay detects complexes by their altered migration in electrophoresis.
The target of test [4] is human TB‐PIGS:ΔXF (Ag85B fused to a truncated human γ1 chain and the IgM μ tailpiece), produced in g (M. tuberculosis | human | not stated) (UniProt P9WQP1). Briefly: SPR; Biacore X100, HBS-EP+; TB-PIGS captured on protein A coupled to a CM5 chip; FcγR as analyte, 40 μL/min; affinity of one FcγR for a single arm.
Test [5] addresses human TB‐PIGS (Ag85B fused to a truncated human γ1 chain and the IgM μ tailpiece), produced in wild‐type N. benthamiana (M. tuberculosis | human | not stated) (UniProt P9WQP1). The experiment in a line: native gel or EMSA.
Test [6] deals with Human TB-PIGS produced in wild-type Nicotiana benthamiana (Ag85B - truncated human γ1 chain - IgM tailpiece) (Mycobacterium tuberculosis | human | not stated) (UniProt P9WQP1). Briefly: SPR; Biacore X100; protein A on a CM5 chip, IgG or TB-PIGS captured; five-six concentrations of human CD16a as analyte; HBS-EP+; 40 uL/min, contact 90 s, dissociation 300 s; two-state binding interaction model.

Test [7] concerns the target Murine TB-PIGS produced in wild-type Nicotiana benthamiana (Ag85B - truncated mouse γ2a chain - IgM tailpiece) (Mycobacterium tuberculosis | mouse | not stated) (UniProt P9WQP1). The experiment in a line: SPR; Biacore X100; protein A amine-coupled on a CM5 chip, IgG or TB-PIGS captured on it; CD64 (human or mouse) as analyte, 240 nM down to 1.875 nM in 1:2 dilutions; HBS-EP+; 40 uL/min, contact 135 s, dissociation 600 s; 1:1 model, but for human TB-PIGS from wild-type plants the 'Heterogeneous antibody with aglycosylation' model (two sets of values).

Test [8] addresses Murine TB-PIGS produced in glyco-engineered ΔXF Nicotiana benthamiana (Mycobacterium tuberculosis | mouse | not stated) (UniProt P9WQP1). The description is as above.

Consider “human CD32a (FcγRIIa) (from UniProt P12318 34-217) (receptor)”, for which the equilibrium dissociation constant (Kd) in test [1] came out at 2160 nM; in test [2] it was 4210 nM.

Consider “murine TB‐PIGS (Ag85B fused to a truncated mouse γ2a chain and the IgM μ tailpiece), produced in wil (from UniProt P9WQP1 41-325) (Fc fusion)”, for which, in test [3], the percent of the sample as polymers was 5 to 20%.

“human CD64 (FcγRI) (from UniProt P12314 16-292) (receptor)” registered a dissociation constant Kd in test [4] of 0.41 nM.

For the molecule “human TB‐PIGS (Ag85B fused to a truncated human γ1 chain and the IgM μ tailpiece), produced in wild‐type N. benthamiana (from UniProt P9WQP1 41-325) (Fc fusion)”, in test [5], the percent of the sample as polymers was 35 to 60%.

As to “human CD16a (FcγRIIIa) (from UniProt P08637 17-208) (receptor)”, the figures for the equilibrium dissociation constant (Kd) in test [4] and in test [6] were 19.7 nM and 279 nM, respectively.

B1: mouse CD64 (FcγRI) (receptor)
chain: EVVNATKAVITLQPPWVSIFQKENVTLWCEGPHLPGDSSTQWFINGTAVQISTPSYSIPEASFQDSGEYRCQIGSSMPSDPVQLQIHNDWLLLQASRRVLTEGEPLALRCHGWKNKLVYNVVFYRNGKSFQFSSDSEVAILKTNLSHSGIYHCSGTGRHRYTSAGVSITVKELFTTPVLRASVSSPFPEGSLVTLNCETNLLLQRPGLQLHFSFYVGSKILEYRNTSSEYHIARAEREDAGFYWCEVATEDSSVLKRSPELELQVLGPQSSAP
In test [7], B1 registered an equilibrium dissociation constant (Kd) of 50 nM, a koff of 0.0248 s⁻¹ and a kon of 500000 M⁻¹ s⁻¹. In test [8], this molecule displayed a Kd of 16.8 nM, a koff of 0.0231 s⁻¹ and a kon of 1.38e+06 M⁻¹ s⁻¹.

What is called Kd is the free concentration of one partner at which half of the binding sites on the other are occupied at equilibrium, for simple one-to-one binding. Low values mean a tighter complex, high ones a looser complex. One may read the koff as the first-order rate constant of dissociation. Lower therefore signals a long-lived complex. The term kon denotes the second-order rate constant of association.
